From the supplement of paper PMC10567573

B1: TPD52L1 (parent)
chain: ISKKFGDMSYSIRHSISMPAMRNS

Variants of: B1
Assay: protein stability index of a GFP-peptide fusion (GPS, HEK-293T) (PSI 1-6); higher = more stable
Details: c terminus: a fixed tail appended
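Note: lentivirally expressed fusions sorted by FACS into six bins by GFP to DsRed ratio, PSI derived from sequencing read proportions per bin multiplied by bin number.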

| Variant | protein stability index |
| --- | --- |
| ISKKFGDMSYSIRHSISMPAMANS [R22A] | 2.23 |
| ISKKFGDMSYSIRHKISMPAMRNS [S15K] | 2.31 |
| ISKKFGDMSYSIRHFISMPAMRNS [S15F] | 1.42 |
| ISKKFGDMSYSIRHYISMPAMRNS [S15Y] | 1.51 |
| ISKKFGDMSYSIRHGISMPAMRNS [S15G] | 2.38 |
| ISKKFGDMSYSIRHQISMPAMRNS [S15Q] | 2.5 |
| ISKKFGDMSYSIRHIISMPAMRNS [S15I] | 1.87 |
| ISKKFGDMSYSIRHPISMPAMRNS [S15P] | 2.43 |
| ISKKFGDMSYSIRHMISMPAMRNS [S15M] | 1.91 |
| ISKKFGDMSYSIRHHISMPAMRNS [S15H] | 1.85 |
| ISKKFGDMSYSIRHRISMPAMRNS [S15R] | 2.24 |
| ISKKFGDMSYSIRHTISMPAMRNS [S15T] | 1.88 |
| ISKKFGDMSYSIRHEISMPAMRNS [S15E] | 3.28 |
| ISKKFGDMSYSIRHLISMPAMRNS [S15L] | 1.83 |
| ISKKFGDMSYSIRHVISMPAMRNS [S15V] | 1.32 |
| ISKKFGDMSYSIRHDISMPAMRNS [S15D] | 1.92 |
| ISKKFGDMSYSIRHNISMPAMRNS [S15N] | 2.37 |
| ISKKFGDMSYSIRHWISMPAMRNS [S15W] | 2.22 |
| ISKKFGDMSYSIRHSISMPSMRNS [A20S] | 2.04 |
| ISKKFGDMSYSIRHSISMPTMRNS [A20T] | 2.58 |
| ISKKFGDMSYSIRHSISMPMMRNS [A20M] | 1.95 |
| ISKKFGDMSYSIRHSISMPDMRNS [A20D] | 3.36 |
| ISKKFGDMSYSIRHSISMPHMRNS [A20H] | 2.28 |
| ISKKFGDMSYSIRHSISMPRMRNS [A20R] | 2.24 |

| Variant | protein stability index |
| --- | --- |
| ISKKFGDMSYSIRHSISMPYMRNS [A20Y] | 2.17 |
| ISKKFGDMSYSIRHSISMPKMRNS [A20K] | 2.35 |
| ISKKFGDMSYSIRHSISMPCMRNS [A20C] | 2.38 |
| ISKKFGDMSYSIRHSISMPLMRNS [A20L] | 1.93 |
| ISKKFGDMSYSIRHSISMPEMRNS [A20E] | 2.58 |
| ISKKFGDMSYSIRHSISMPFMRNS [A20F] | 2.2 |
| ISKKFGDMSYSIRHSISMPGMRNS [A20G] | 1.67 |
| ISKKFGDMSYSIRHSISMPWMRNS [A20W] | 2.13 |
| ISKKFGDMSYSIRHSISMPVMRNS [A20V] | 2.95 |
| ISKKFGDMSYSIRHSISMPIMRNS [A20I] | 2.67 |
| ISKKFGDMSYSIRHSISMPPMRNS [A20P] | 2.36 |
| ISKKFGDMSYSIRHSISMPNMRNS [A20N] | 2.58 |
| ISKKFGDMSYSIRHSISMPQMRNS [A20Q] | 2.26 |
| ISKKFGDMSYSIRHSIQMPAMRNS [S17Q] | 2.48 |
| ISKKFGDMSYSIRHSIVMPAMRNS [S17V] | 2.12 |
| ISKKFGDMSYSIRHSIDMPAMRNS [S17D] | 2.36 |
| ISKKFGDMSYSIRHSIYMPAMRNS [S17Y] | 1.98 |
| ISKKFGDMSYSIRHSIKMPAMRNS [S17K] | 2.13 |
| ISKKFGDMSYSIRHSINMPAMRNS [S17N] | 2.25 |
| ISKKFGDMSYSIRHSIFMPAMRNS [S17F] | 2.13 |
| ISKKFGDMSYSIRHSIAMPAMRNS [S17A] | 2.01 |
| ISKKFGDMSYSIRHSIPMPAMRNS [S17P] | 2.28 |
| ISKKFGDMSYSIRHSICMPAMRNS [S17C] | 1.92 |
| ISKKFGDMSYSIRHSIGMPAMRNS [S17G] | 2.42 |

| Variant | protein stability index |
| --- | --- |
| ISKKFGDMSYSIRHSIMMPAMRNS [S17M] | 2.17 |
| ISKKFGDMSYSIRHSITMPAMRNS [S17T] | 2.11 |
| ISKKFGDMSYSIRHSIEMPAMRNS [S17E] | 2.1 |
| ISKKFGDMSYSIRHSILMPAMRNS [S17L] | 1.8 |
| ISKKFGDMSYSIRHSIRMPAMRNS [S17R] | 2.17 |
| ISKKFGDMSYSIRHSIWMPAMRNS [S17W] | 1.27 |
| ISKKFGDMSYSIRHSIHMPAMRNS [S17H] | 2.15 |
| ISKKFGDMSYSIRHSIIMPAMRNS [S17I] | 2.03 |
| ISKKFGDMSYSIRHSISMPAMRKS [N23K] | 2.48 |
| ISKKFGDMSYSIRHSISMPAMRAS [N23A] | 1.86 |
| ISKKFGDMSYSIRHSISMPAMRQS [N23Q] | 2.29 |
| ISKKFGDMSYSIRHSISMPAMRPS [N23P] | 2.46 |
| ISKKFGDMSYSIRHSISMPAMRWS [N23W] | 2.39 |
| ISKKFGDMSYSIRHSISMPAMRVS [N23V] | 1.84 |
| ISKKFGDMSYSIRHSISMPAMRRS [N23R] | 2.14 |
| ISKKFGDMSYSIRHSISMPAMRMS [N23M] | 2.05 |
| ISKKFGDMSYSIRHSISMPAMRHS [N23H] | 2.19 |
| ISKKFGDMSYSIRHSISMPAMRGS [N23G] | 2.42 |
| ISKKFGDMSYSIRHSISMPAMRYS [N23Y] | 1.51 |
| ISKKFGDMSYSIRHSISMPAMRDS [N23D] | 2.32 |
| ISKKFGDMSYSIRHSISMPAMRCS [N23C] | 1.91 |
| ISKKFGDMSYSIRHSISMPAMRLS [N23L] | 1.98 |
| ISKKFGDMSYSIRHSISMPAMRTS [N23T] | 2.31 |
| ISKKFGDMSYSIRHSISMPAMRIS [N23I] | 1.77 |

| Variant | protein stability index |
| --- | --- |
| ISKKFGDMSYSIRHSISMPAMRSS [N23S] | 2.26 |
| ISKKFGDMSYSIRHSISMPAMRES [N23E] | 2.28 |
| ISKKFGDMSYSIRHSISMPAMRFS [N23F] | 1.84 |
| ISKKFGDMSYSIRHSISMPAMRNE [S24E] | 2.15 |
| ISKKFGDMSYSIRHSISMPAMRNP [S24P] | 2.33 |
| ISKKFGDMSYSIRHSISMPAMRNH [S24H] | 2.42 |
| ISKKFGDMSYSIRHSISMPAMRNQ [S24Q] | 1.76 |
| ISKKFGDMSYSIRHSISMPAMRNI [S24I] | 1.81 |
| ISKKFGDMSYSIRHSISMPAMRNV [S24V] | 2.24 |
| ISKKFGDMSYSIRHSISMPAMRNK [S24K] | 2.21 |
| ISKKFGDMSYSIRHSISMPAMRNR [S24R] | 2.67 |
| ISKKFGDMSYSIRHSISMPAMRNY [S24Y] | 1.77 |
| ISKKFGDMSYSIRHSISMPAMRNC [S24C] | 1.92 |
| ISKKFGDMSYSIRHSISMPAMRNT [S24T] | 2.74 |
| ISKKFGDMSYSIRHSISMPAMRNW [S24W] | 1.44 |
| ISKKFGDMSYSIRHSISMPAMRNA [S24A] | 2.63 |
| ISKKFGDMSYSIRHSISMPAMRNL [S24L] | 1.96 |
| ISKKFGDMSYSIRHSISMPAMRNM [S24M] | 1.82 |
| ISKKFGDMSYSIRHSISMPAMRNG [S24G] | 2.13 |
| ISKKFGDMSYSIRHSISMPAMRND [S24D] | 2.61 |
| ISKKFGDMSYSIRHSISMPAMRNN [S24N] | 2.33 |
| ISKKFGDMSYSIRHSISMPAMRNF [S24F] | 1.57 |
